Series [1] deals with 3-hydroxybutyrate dehydrogenase from Citrobacter freundii (CF3HBD) (Citrobacter freundii). The experiment in a line: crystal structure; hanging-drop vapor diffusion at 20 °C, protein with 5 mM NAD+, 3.2 M sodium acetate pH 6.5; space group P2_(1), four molecules in an asymmetric unit.
A further series has as its target T1, SM3HBD (Serratia marcescens, UniProt A0A2F0PAS1).
T1 construct: gene DMW51_14370
T1 sequence (A0A2F0PAS1 1-256): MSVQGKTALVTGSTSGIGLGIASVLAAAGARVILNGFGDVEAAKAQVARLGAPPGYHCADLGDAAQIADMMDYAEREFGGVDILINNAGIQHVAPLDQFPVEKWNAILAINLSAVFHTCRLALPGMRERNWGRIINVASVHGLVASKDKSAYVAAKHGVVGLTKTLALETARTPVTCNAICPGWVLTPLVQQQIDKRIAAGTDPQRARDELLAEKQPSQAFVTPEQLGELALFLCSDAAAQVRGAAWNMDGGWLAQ
In words: cyclization assay with purified enzyme, ε-caprolactam formed. Format: biochemical.

A further series has as its target T2, CF3HBD (Citrobacter freundii, UniProt A0A0D7LY80).
T2 construct: gene AI2602V1_2506; tetramer in the asymmetric unit (two subunits NAD+-free)
T2 sequence (A0A0D7LY80 1-256): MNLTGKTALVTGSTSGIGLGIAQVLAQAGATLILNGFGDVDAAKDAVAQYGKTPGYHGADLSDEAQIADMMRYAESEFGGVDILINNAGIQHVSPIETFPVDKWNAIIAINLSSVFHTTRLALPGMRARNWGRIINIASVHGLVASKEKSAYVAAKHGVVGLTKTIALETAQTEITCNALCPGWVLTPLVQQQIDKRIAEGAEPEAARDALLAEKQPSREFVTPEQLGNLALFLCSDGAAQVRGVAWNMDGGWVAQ
In words: X-ray crystal structure, […] Å. Format: binding. The settings on record: 5 mM NAD+, 3.2 M sodium acetate pH 6.5, 20 °C.

Substrate in series [2]: NCCCCCC(=O)O
The experiment in a line: LC-MS of caprolactam formed, Michaelis-Menten fit. Format: biochemical, Citrobacter freundii. The conditions noted are these: 50 mM HEPES pH 7.5, 35 °C, 10 min, no cofactor or metal, cyclization to ε-caprolactam.

“3-hydroxybutyrate dehydrogenase from Citrobacter freundii (CF3HBD) (enzyme)” registered a stoichiometry N in series [1] of 4.

Regarding `NCCCCCC(=O)O` [6-aminocaproic acid], the “cyclization assay with purified enzyme, ε-caprolactam formed” value at SM3HBD is listed as “both enzymes showed cyclization activity towards 6-ACA to produce ε-caprolactam”.

Take `NC(=O)c1ccc[n+]([C@@H]2O[C@H](COP(=O)(O)OP(=O)(O)OC[C@H]3O[C@@H](n4cnc5c(N)ncnc54)[C@H](O)[C@@H]3O)[C@@H](O)[C@H]2O)c1` [NAD^+]: the “X-ray crystal structure, 2.29 Å” value at CF3HBD was “we determined the crystal structure of CF3HBD in complex with NAD^+”.

B1: CF3HBD (Citrobacter freundii) (protein)
chain: MNLTGKTALVTGSTSGIGLGIAQVLAQAGATLILNGFGDVDAAKDAVAQYGKTPGYHGADLSDEAQIADMMRYAESEFGGVDILINNAGIQHVSPIETFPVDKWNAIIAINLSSVFHTTRLALPGMRARNWGRIINIASVHGLVASKEKSAYVAAKHGVVGLTKTIALETAQTEITCNALCPGWVLTPLVQQQIDKRIAEGAEPEAARDALLAEKQPSREFVTPEQLGNLALFLCSDGAAQVRGVAWNMDGGWVAQ
notes: tetramer in the asymmetric unit (two subunits NAD+-free)
B1: in series [2], the Michaelis constant (Km) is 3.3 ± 0.3 mM, the catalytic constant (kcat) turned out to be 0.0012 ± 3.33e-05 s⁻¹ and the kcat/Km stood at 0.363 ± 0.03 M⁻¹ s⁻¹.

The values above are taken from PMC6265244, “A synthetic microbial biosensor for high-throughput screening of lactam biocatalysts” (Nature Communications, 2018).
